The values below come from article PMC9352680, “A comprehensive thermodynamic model for RNA binding by the Saccharomyces cerevisiae Pumilio protein PUF4”.

Changes are numbered by the printed parent chain. Names may count otherwise.

In the series the target is T1, PUF4 RNA-binding domain (Saccharomyces cerevisiae, UniProt P25339 537-888).
T1 sequence: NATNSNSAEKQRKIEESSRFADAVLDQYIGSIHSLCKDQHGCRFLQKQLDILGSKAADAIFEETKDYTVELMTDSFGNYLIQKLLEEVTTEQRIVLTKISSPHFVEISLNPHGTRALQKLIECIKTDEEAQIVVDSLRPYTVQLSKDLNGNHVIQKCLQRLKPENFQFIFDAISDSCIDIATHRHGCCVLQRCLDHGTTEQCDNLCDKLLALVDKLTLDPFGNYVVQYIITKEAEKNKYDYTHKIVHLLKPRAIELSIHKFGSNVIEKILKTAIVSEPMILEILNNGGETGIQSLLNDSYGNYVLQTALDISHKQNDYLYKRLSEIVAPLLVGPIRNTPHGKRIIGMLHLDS
Put plainly: Mg; RNA-MaP; 20 mM Na-HEPES pH 7.4, 30 mM KOAc, 0.75 mM MgCl2, 0.1% Tween-20, 5% glycerol, 0.1 mg/mL BSA, 2 mM DTT; 25 C; 0.0125-409.6 nM protein. The note with it: tags: N-His6-TEV cleaved; C-SNAP kept, Cy3B-labelled; label: tethered on chip by stalled RNA polymerase.

For the molecule UCUCUUUUGUAUUAUUAUCUCUU (ssRNA) [Ie_S1_P5E.1_K5.1_C5.1_H5.1_[+1T]_A5.1_F5.1_T5.1], the dissociation constant Kd turned out to be 5.92 nM. Take UCUCUUUGUCAUUAUUAUCUCUU (ssRNA) [Ie_S1_P5E.1_K5.1_C5.1_H5.1_[+3C]_A5.1_F5.1_T5.1]: the affinity, expressed as Kd, was 99.4 nM. With UCUCUUUGCUUUAUUAUUAUCUCUU (ssRNA) [Ie_S1_P5E.1_K5.1_C5.1_H5.1_[+2CTT]_A5.1_F5.1_T5.1], binding was characterised by a dissociation constant (Kd) of 1920 nM. Consider UCUCUUUCGUAUUAUUAUCUCUU (ssRNA) [Ie_S1_P5E.1_K5.1_C5.1_H5.1_[+1C]_A5.1_F5.1_T5.1], for which the dissociation constant (Kd) is 1320 nM. Molecule UCUCUUUGCUCUAUUAUUAUCUCUU (ssRNA) [Ie_S1_P5E.1_K5.1_C5.1_H5.1_[+2CTC]_A5.1_F5.1_T5.1] showed a Kd greater than 2300 nM. Consider UCUCUUUGUCUAUUAUUAUCUCUU (ssRNA) [Ie_S1_P5E.1_K5.1_C5.1_H5.1_[+2TC]_A5.1_F5.1_T5.1], for which binding was characterised by a dissociation constant (Kd) of 18.6 nM.

Turning to UCUCUUUUUGUAUUAUUAUCUCUU (ssRNA) [Ie_S1_P5E.1_K5.1_C5.1_H5.1_[+1TT]_A5.1_F5.1_T5.1], binding was put at a Kd of 7.17 nM. In turn, UCUCUUUCCCUGUAUUAUUAUCUCUU (ssRNA) [Ie_S1_P5E.1_K5.1_C5.1_H5.1_[+1CCCT]_A5.1_F5.1_T5.1] came in with a Kd of 5.88 nM. Next, UCUCUUUGUCUCUUAUUAUUAUCUCUU (ssRNA) [Ie_S1_P5E.1_K5.1_C5.1_H5.1_[+2TCTCT]_A5.1_F5.1_T5.1]: 332 nM; UCUCUUUGUUCAUUAUUAUCUCUU (ssRNA) [Ie_S1_P5E.1_K5.1_C5.1_H5.1_[+3TC]_A5.1_F5.1_T5.1]: 10.9 nM; UCUCUUUCCCUUGUAUUAUUAUCUCUU (ssRNA) [Ie_S1_P5E.1_K5.1_C5.1_H5.1_[+1CCCTT]_A5.1_F5.1_T5.1]: 5.34 nM.

B1: Ib_S2_P3E.1_K3.1_C3.1_H3.1_[A4T]_A3.1_F3.1_[T7A]_T3.1 (ssRNA)
RNA: UUUGAUUAAUAUGAUAUCGUUCUUUCUUGUUUAAAUUCUUUCUCGAUAUCAUAUUAAUCUUU
B1 gave a Kd of 1590 nM.

B2: Ib_S2_P3E.1_K3.1_C3.1_H3.1_[T1G]_A3.1_F3.1_[A8G]_T3.1 (ssRNA)
RNA: B1 RNA with U28G, U31A, A34U, A35G
In turn, B2 returned a Kd of 1140 nM.

B3: Ib_S2_P3E.1_K3.1_C3.1_H3.1_[T1A]_A3.1_F3.1_[A8G]_T3.1 (ssRNA)
RNA: B1 RNA with U28A, U31A, A34U, A35G
Take B3: the Kd is greater than 2300 nM.

B4: Ib_S2_P3E.1_K3.1_C3.1_H3.1_[T1C]_A3.1_F3.1_[A8G]_T3.1 (ssRNA)
RNA: B1 RNA with U28C, U31A, A34U, A35G
As to B4, the Kd is greater than 2300 nM.

B5: Ia_S2_P3E.1_K3.1_C3.1_H3.1_[T1A]_A3.1_F3.1_T3.1 (ssRNA)
RNA: B1 RNA with U28A, U31A, A34U
Molecule B5 gave a Kd of 931 nM.

Take UCUCUUUGUCUCUAUUAUUAUCUCUU (ssRNA) [Ie_S1_P5E.1_K5.1_C5.1_H5.1_[+2TCTC]_A5.1_F5.1_T5.1]: the Kd worked out at 405 nM. For UCUCUUUUUCCGUAUUAUUAUCUCUU (ssRNA) [Ie_S1_P5E.1_K5.1_C5.1_H5.1_[+1TTCC]_A5.1_F5.1_T5.1] the value was greater than 2300 nM; for UCUCUUUGUUAUUAUUAUCUCUU (ssRNA) [Ie_S1_P5E.1_K5.1_C5.1_H5.1_[+2T]_A5.1_F5.1_T5.1], 64.9 nM; for UCUCUUUGUUUUAUUAUUAUCUCUU (ssRNA) [Ie_S1_P5E.1_K5.1_C5.1_H5.1_[+3TTT]_A5.1_F5.1_T5.1], 28.2 nM.

Turning to UCUCUUUCUCUGUAUUAUUAUCUCUU (ssRNA) [Ie_S1_P5E.1_K5.1_C5.1_H5.1_[+1CTCT]_A5.1_F5.1_T5.1], the Kd is 7.73 nM. On to UCUCUUUUCUGUAUUAUUAUCUCUU (ssRNA) [Ie_S1_P5E.1_K5.1_C5.1_H5.1_[+1TCT]_A5.1_F5.1_T5.1], for which the Kd is 4.9 nM. For the molecule UCUCUUUGUUCUAUUAUUAUCUCUU (ssRNA) [Ie_S1_P5E.1_K5.1_C5.1_H5.1_[+3TCT]_A5.1_F5.1_T5.1], the Kd was determined as 32.9 nM.

Take UCUCUUUGUCCUAUUAUUAUCUCUU (ssRNA) [Ie_S1_P5E.1_K5.1_C5.1_H5.1_[+3CCT]_A5.1_F5.1_T5.1]: the Kd worked out at 110 nM.

In turn, UCUCUUUCUCGUAUUAUUAUCUCUU (ssRNA) [Ie_S1_P5E.1_K5.1_C5.1_H5.1_[+1CTC]_A5.1_F5.1_T5.1] gave a Kd of 1250 nM.

Molecule UCUCUUUGCUUAUUAUUAUCUCUU (ssRNA) [Ie_S1_P5E.1_K5.1_C5.1_H5.1_[+2CT]_A5.1_F5.1_T5.1] registered a Kd of 2090 nM. As to UCUCUUUCUGUAUUAUUAUCUCUU (ssRNA) [Ie_S1_P5E.1_K5.1_C5.1_H5.1_[+1CT]_A5.1_F5.1_T5.1], binding was put at a Kd of 3.96 nM.

Turning to UCUCUUUUCUCGUAUUAUUAUCUCUU (ssRNA) [Ie_S1_P5E.1_K5.1_C5.1_H5.1_[+1TCTC]_A5.1_F5.1_T5.1], the Kd was 1230 nM. As to UCUCUUUGUUUAUUAUUAUCUCUU (ssRNA) [Ie_S1_P5E.1_K5.1_C5.1_H5.1_[+2TT]_A5.1_F5.1_T5.1], the Kd amounted to 8.58 nM.

Take UCUCUUUCUCUCGUAUUAUUAUCUCUU (ssRNA) [Ie_S1_P5E.1_K5.1_C5.1_H5.1_[+1CTCTC]_A5.1_F5.1_T5.1]: the Kd was found to be 1240 nM. On to UCUCUUUCCCGUAUUAUUAUCUCUU (ssRNA) [Ie_S1_P5E.1_K5.1_C5.1_H5.1_[+1CCC]_A5.1_F5.1_T5.1], for which the Kd is 1340 nM.

Take UCUCUUUGCUCUUAUUAUUAUCUCUU (ssRNA) [Ie_S1_P5E.1_K5.1_C5.1_H5.1_[+2CTCT]_A5.1_F5.1_T5.1]: the Kd is greater than 2300 nM. Next, UCUCUUUGUAUAUUACCCUUUCUCUU (ssRNA) [Ie_S1_P4E.1_K4.1_C4.1_H4.1_A4.1_F4.1_[+9CCCTT]_T4.1]: 0.925 nM; UCUCUUUCCUCGUAUUAUUAUCUCUU (ssRNA) [Ie_S1_P5E.1_K5.1_C5.1_H5.1_[+1CCTC]_A5.1_F5.1_T5.1]: 1350 nM; UCUCUUUUCGUAUUAUUAUCUCUU (ssRNA) [Ie_S1_P5E.1_K5.1_C5.1_H5.1_[+1TC]_A5.1_F5.1_T5.1]: 1240 nM. For UCUCUUUCCUCUGUAUUAUUAUCUCUU (ssRNA) [Ie_S1_P5E.1_K5.1_C5.1_H5.1_[+1CCTCT]_A5.1_F5.1_T5.1] the value was 4.35 nM; for UCUCUUUUUUGUAUUAUUAUCUCUU (ssRNA) [Ie_S1_P5E.1_K5.1_C5.1_H5.1_[+1TTT]_A5.1_F5.1_T5.1], 6.28 nM; for UCUCUUUCUUGUAUUAUUAUCUCUU (ssRNA) [Ie_S1_P5E.1_K5.1_C5.1_H5.1_[+1CTT]_A5.1_F5.1_T5.1], 4.33 nM. Consider UCUCUUUUCUCUGUAUUAUUAUCUCUU (ssRNA) [Ie_S1_P5E.1_K5.1_C5.1_H5.1_[+1TCTCT]_A5.1_F5.1_T5.1], for which the Kd amounted to 7.43 nM. Next, UCUCUUUUUCGUAUUAUUAUCUCUU (ssRNA) [Ie_S1_P5E.1_K5.1_C5.1_H5.1_[+1TTC]_A5.1_F5.1_T5.1]: 1620 nM; UCUCUUUGUAUAUUAUUCCUUCUCUU (ssRNA) [Ie_S1_P4E.1_K4.1_C4.1_H4.1_A4.1_F4.1_[+9TTCCT]_T4.1]: 0.347 nM. UCUCUUUGUCUUAUUAUUAUCUCUU (ssRNA) [Ie_S1_P5E.1_K5.1_C5.1_H5.1_[+3CTT]_A5.1_F5.1_T5.1] yielded a Kd of 41.9 nM. For the molecule UCUCUUUCCUGUAUUAUUAUCUCUU (ssRNA) [Ie_S1_P5E.1_K5.1_C5.1_H5.1_[+1CCT]_A5.1_F5.1_T5.1], the Kd was 7.97 nM.
